Data: PMC2672303, “Dosage Effects of Cohesin Regulatory Factor PDS5 on Mammalian Development: Implications for Cohesinopathies”

Target: T1, C-PDS5B-His wild type (C-terminal PDS5B, two AT-hooks) (Homo sapiens, UniProt Q9NTI5 1134-1446)
T1 sequence: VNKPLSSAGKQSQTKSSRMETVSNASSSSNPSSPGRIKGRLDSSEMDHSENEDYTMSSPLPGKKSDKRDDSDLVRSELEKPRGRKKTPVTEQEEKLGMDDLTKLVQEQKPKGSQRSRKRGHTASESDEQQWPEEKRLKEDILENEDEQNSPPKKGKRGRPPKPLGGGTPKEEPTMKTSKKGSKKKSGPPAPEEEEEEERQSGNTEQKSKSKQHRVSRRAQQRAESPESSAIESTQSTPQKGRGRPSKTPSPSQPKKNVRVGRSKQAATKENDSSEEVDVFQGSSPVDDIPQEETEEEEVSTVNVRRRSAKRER
Assay: EMSA; 5-40 ng protein; EMSA: 20 ng protein (5-40 ng in Fig. 7E) with 2.25 pmol 32P probe, 25 C, 5 min, 6% polyacrylamide gel; protein dialyzed in 50 mM Tris pH 7.5, 0.5 mM EDTA, 100 mM NaCl, 10% glycerol, 1 mM DTT; binding buffer as in cited work
Conditions: protein: recombinant; tags: N-terminal HA; C-terminal 6xHis; label: 32P; blunt

B1: T5-8-T5 probe (dsDNA)
DNA 1: GGACTCCAGGTCCAGGACCGCTTTTTGCGCGCGCTTTTTGCGGGAGGTCCAGCTGTCCACCTCC
DNA 2: GGAGGTGGACAGCTGGACCTCCCGCAAAAAGCGCGCGCAAAAAGCGGTCCTGGACCTGGAGTCC
B1: binds.
